Compound in series [1]: CCSc1nc2c(N)ncnc2n1[C@@H]1O[C@H](COP(=O)(O)O)[C@@H](O)[C@H]1O
The series can be described thus: Inhibitory constant of rat adenylate kinase (AK II) isozymes expressed as relative maximal velocity.

Compound in series [2]: CC(=O)NCCCCCCCCNc1ncnc2c1ncn2C1O[C@H](COP(=O)(O)O)[C@@H](O)[C@H]1O
The experiment in a line: (§1) Inhibitory constant of rat adenylate kinase (AK III) isozymes expressed as relative maximal velocity.

Compound in series [3]: CCCCN(CCCC)c1ncnc2c1ncn2C1O[C@H](COP(=O)(O)OP(=O)(O)OP(=O)(O)O)[C@@H](O)[C@H]1O
The series is described as §1.

Compound in series [4]: CCCCNc1ncnc2c1ncn2C1O[C@H](COP(=O)(O)OP(=O)(O)OP(=O)(O)O)[C@@H](O)[C@H]1O
The series is described as §1.

Compound in series [5]: CCCCSc1ncnc2c1ncn2C1O[C@H](COP(=O)(O)OP(=O)(O)OP(=O)(O)O)[C@@H](O)[C@H]1O
Described as §1.

Compound in series [6]: Nc1ncnc2c1ncn2[C@@H]1O[C@H](COP(=O)(O)O)[C@@H](O)[C@H]1O
The description is as §1.

Compound in series [7]: O=C(CI)NCCCCCNc1ncnc2c1ncn2C1O[C@H](COP(=O)(O)OP(=O)(O)OP(=O)(O)O)[C@@H](O)[C@H]1O
The description is as §1.

Substrate in series [8]: CC(=O)NCCNc1ncnc2c1ncn2C1O[C@H](COP(=O)(O)O)[C@@H](O)[C@H]1O
The series can be described thus: Rat Adenylate kinase III and maximal velocity was determined.

Substrate in series [9]: CCCCNc1ncnc2c1ncn2C1O[C@H](COP(=O)(O)OP(=O)(O)OP(=O)(O)O)[C@@H](O)[C@H]1O
The series can be described thus: (§2) Concentration for half-maximal velocity for adenylate kinase (AK III) was determined.

Substrate in series [10]: CCCCSc1ncnc2c1ncn2C1O[C@H](COP(=O)(O)OP(=O)(O)OP(=O)(O)O)[C@@H](O)[C@H]1O
The series is described as §2.

Substrate in series [11]: Nc1ncnc2c1ncn2[C@@H]1O[C@H](COP(=O)(O)O)[C@@H](O)[C@H]1O
The series is described as §2.

Substrate in series [12]: O=C(CI)NCCCCCNc1ncnc2c1ncn2C1O[C@H](COP(=O)(O)OP(=O)(O)OP(=O)(O)O)[C@@H](O)[C@H]1O
The description is as §2.

B1: GTP:AMP phosphotransferase AK3, mitochondrial (Rattus norvegicus), P29411 (protein)
chain: MGASGRLLRAVIMGAPGSGKGTGSSRITKHFELKHLSSGDLLRQNMLQGTEIAVLAKSFIDQGKLIPDDDMTRLALHELKNLTQCSWLLDGFPRTLPQAEALDRVYQIDTVINLNVPFEVIKLRLTARWIHPASGRVYNIEFNPPKTVGIDDLTGEPLIQREDDKPETVIKRLKAYEAQTEPVLQYYQKKGVLETFSGTETNKIRPHVYSFLQMKVPETIQKASVTP
In the case of B1, the Vmax in series [1] is 0%; in [2], 0%; in series [3], 0%; in series [4], 25%; in [5], 57%; in [6], 100%. The Vmax in [7] stood at 9%; in [8] it was 0%. The Km amounted to 1200 µM in series [9], 1450 µM in [10], 90 µM in series [11] and 400 µM in [12].

The term Km denotes the concentration of substrate that gives half-maximal velocity.

These data come from ChEMBL document CHEMBL1122067, “Species- or isozyme-specific enzyme inhibitors. 4. Design of a two-site inhibitor of adenylate kinase with isozyme selectivity” (J Med Chem, 1982).
